Laboratory results taken from patent publication US7067277B1, “Chimeric G proteins and uses thereof” (H. Lundbeck A/S, priority 1999, dated 2006).

T1: r GALR3 (Rattus norvegicus, UniProt O88626)
T1 sequence (O88626 1-370): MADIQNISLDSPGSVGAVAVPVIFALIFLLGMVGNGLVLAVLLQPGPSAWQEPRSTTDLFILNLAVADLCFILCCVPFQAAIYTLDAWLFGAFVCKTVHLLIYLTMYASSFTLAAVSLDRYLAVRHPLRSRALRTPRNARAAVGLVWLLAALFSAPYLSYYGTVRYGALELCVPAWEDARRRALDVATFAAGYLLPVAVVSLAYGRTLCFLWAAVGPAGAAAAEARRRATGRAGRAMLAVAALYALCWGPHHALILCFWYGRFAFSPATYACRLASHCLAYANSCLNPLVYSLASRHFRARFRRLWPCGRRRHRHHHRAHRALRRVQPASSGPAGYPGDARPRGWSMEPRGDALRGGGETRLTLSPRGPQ

B1: dGαq/z5: D. melanogaster Gαq chimera containing the five C-terminal amino acids of human Gαz (SEQ ID NO: 41) (protein)
chain: MECCLSEEAKEQKRINQEIEKQLRRDKRDARRELKLLLLGTGESGKSTFIKQMRIIHGSGYSDEDKRGYIKLVFQNIFMAMQSMIKAMDMLKISYGQGEHSELADLVMSIDYETVTTFEDPYLNAIKTLWDDAGIQECYDRRREYQLTDSAKYYLKDLDRVAQPAYLPTEQDILRVRVPTTGIIEYPFDLEEIRFRMVDVGGQRSERRKWIHCFENVTSIIFLVALSEYDQILFESDNENRMEESKALFRTIITYPWFQNSSVILFLNKKDLLEEKIMYSHLVDYFPEYDGPQRDAITAREFILRMFVDLNPDSEKIIYSHFTCATDTENIRFVFAAVKDTILQSNLKYIGLC
modifications: Drosophila melanogaster
B2: cGαq/s21: C. elegans Gαq with C-terminal Gαs tail of 21 amino acids (SEQ ID NO: 4) (protein)
chain: MACCLSEEAREQKRINQEIEKQLQRDKRNARRELKLLLLGTGESGKSTFIKQMRIIHGQGYSEEDKRAHIRLVYQNVFMAIQSMIRAMDTLDIKFGNESEELQEKAAVVREVDFESVTSFEEPYVSYIKELWEDSGIQECYDRRREYQLTDSAKYYLSDLRRLAVPDYLPTEQDILRVRVPTTGIIEYPFDLEQIIFRMVDVGGQRSERRKWIHCFENVTSIMFLVALSEYDQVLVECDNENRMEESKALFRTIITYPWFTNSSVILFLNKKDLLEEKILYSHLADYFPEYDGPPRDPIAAREFILKMFVDLNPDADKIIYSHFTCATDTENIRRVFNDCRDIIQRMHLRQYELL
modifications: C. elegans
B3: hGαq/s9: human Gαq with 9 C-terminal amino acids of Gαs (protein)
chain: MTLESIMACCLSEEAKEARRINDEIERQLRRDKRDARRELKLLLLGTGESGKSTFIKQMRIIHGSGYSDEDKRGFTKLVYQNIFTAMQAMIRAMDTLKIPYKYEHNKAHAQLVREVDVEKVSAFENPYVDAIKSLWNDPGIQECYDRRREYQLSDSTKYYLNDLDRVADPSYLPTQQDVLRVRVPTTGIIEYPFDLQSVIFRMVDVGGQRSERRKWIHCFENVTSIMFLVALSEYDQVLVESDNENRMEESKALFRTIITYPWFQNSSVILFLNKKDLLEEKIMYSHLVDYFPEYDGPQRDAQAAREFILKMFVDLNPDSDKIIYSHFTCATDTENIRFVFAAVKDTILQMHLRQYELL
B4: human Gαq/i3(5): human Gαq with five C-terminal amino acids of Gαi3 (protein)
chain: MTLESIMACCLSEEAKEARRINDEIERQLRRDKRDARRELKLLLLGTGESGKSTFIKQMRIIHGSGYSDEDKRGFTKLVYQNIFTAMQAMIRAMDTLKIPYKYEHNKAHAQLVREVDVEKVSAFENPYVDAIKSLWNDPGIQECYDRRREYQLSDSTKYYLNDLDRVADPSYLPTQQDVLRVRVPTTGIIEYPFDLQSVIFRMVDVGGQRSERRKWIHCFENVTSIMFLVALSEYDQVLVESDNENRMEESKALFRTIITYPWFQNSSVILFLNKKDLLEEKIMYSHLVDYFPEYDGPQRDAQAAREFILKMFVDLNPDSDKIIYSHFTCATDTENIRFVFAAVKDTILQLNLKECGLY
B5: hGαq/s5: human Gαq with 5 C-terminal amino acids of Gαs (protein)
chain: MTLESIMACCLSEEAKEARRINDEIERQLRRDKRDARRELKLLLLGTGESGKSTFIKQMRIIHGSGYSDEDKRGFTKLVYQNIFTAMQAMIRAMDTLKIPYKYEHNKAHAQLVREVDVEKVSAFENPYVDAIKSLWNDPGIQECYDRRREYQLSDSTKYYLNDLDRVADPSYLPTQQDVLRVRVPTTGIIEYPFDLQSVIFRMVDVGGQRSERRKWIHCFENVTSIMFLVALSEYDQVLVESDNENRMEESKALFRTIITYPWFQNSSVILFLNKKDLLEEKIMYSHLVDYFPEYDGPQRDAQAAREFILKMFVDLNPDSDKIIYSHFTCATDTENIRFVFAAVKDTILQLNLKQYELL
B6: C. elegans Gαq/i3(5): C. elegans Gαq with five C-terminal amino acids of Gαi3 (SEQ ID NO: 5) (protein)
chain: MACCLSEEAREQKRINQEIEKQLQRDKRNARRELKLLLLGTGESGKSTFIKQMRIIHGQGYSEEDKRAHIRLVYQNVFMAIQSMIRAMDTLDIKFGNESEELQEKAAVVREVDFESVTSFEEPYVSYIKELWEDSGIQECYDRRREYQLTDSAKYYLSDLRRLAVPDYLPTEQDILRVRVPTTGIIEYPFDLEQIIFRMVDVGGQRSERRKWIHCFENVTSIMFLVALSEYDQVLVECDNENRMEESKALFRTIITYPWFTNSSVILFLNKKDLLEEKILYSHLADYFPEYDGPPRDPIAAREFILKMFVDLNPDADKIIYSHFTCATDTENIRFVFAAVKDTILQHNLKECGLY
modifications: C. elegans

Key:
Assay in all cases: Calcium mobilization (FLIPR, Fluo-3) in transfected COS-7 cells
Assay type in all cases: cell-based
h D1 = biological target: T2, h D1 (Homo sapiens, UniProt P21728)
T2 construct: expressed in transfected cells; host or cells: COS-7
Procedure: (§1) COS-7 cells were cultured in 225 cm^2 flasks in Dulbecco's Modified Eagle Medium (DMEM) with supplements (10% bovine calf serum, 4 mM glutamine, 100 units/ml penicillin and 100 μg/ml streptomycin) at 37° C., 5% CO2. Stock plates of COS-7 cells were trypsinized and split 1:6 every 3–4 days.
For evaluating the function of a single chimeric G protein, the standard cDNA transfection ratio was 1:1 (10 μg GPCR cDNA and 10 μg chimeric G protein cDNA). For evaluating the function of a mixture of chimeric G proteins, the standard cDNA transfection ratio was 8:1:1 (16 μg GPCR cDNA, 2 μg Gαq/z cDNA, 2 μg Gαq/s cDNA).
Twenty four hours after transient transfection, COS-7 cells were seeded into 96-well black wall microtiter plates coated with poly-D-lysine for assay the following day. […] After excess dye was discarded, cells were washed in assay buffer and layered with a final volume equal to 100 μl/well. Basal fluorescence was monitored in a fluorometric imaging plate reader (FLIPR™, Molecular Devices) with an excitation wavelength of 488 nm and an emission range of 500 to 560 nm. Laser excitation energy was adjusted so that basal fluorescence readings were approximately 10,000 relative fluorescent units. Cells were stimulated with agonists diluted in assay buffer (50 μl), and relative fluorescent units were measured at defined intervals (exposure=0.4 sec) over a 3 min period at room temperature. Maximum change in fluorescence was calculated for each well. Concentration-response curves derived from the maximum change in fluorescence were analyzed by nonlinear regression (Hill equation).

h 5HT6 = h 5HT6 (Homo sapiens, UniProt P50406); details: h 5HT6 + chimera in COS-7; agonist 5HT, max 100 μM
Procedure: as §1
(§2) GPCR and chimeric G protein cDNAs were transiently transfected into COS-7 cells in 150 cm^2 flasks by the DEAE-dextran method (Cullen, 1987), using a total of 20 μg of DNA/˜7×10^6 cells. For evaluating the function of a single chimeric G protein, the standard cDNA transfection ratio was 1:1 (10 μg GPCR cDNA and 10 μg chimeric G protein cDNA). For evaluating the function of a mixture of chimeric G proteins, the standard cDNA transfection ratio was 8:1:1 (16 μg GPCR cDNA, 2 μg Gαq/z cDNA, 2 μg Gαq/s cDNA).
(§3) Twenty four hours after transient transfection, COS-7 cells were seeded into 96-well black wall microtiter plates coated with poly-D-lysine for assay the following day. Just prior to assay, culture medium was aspirated and cells were dye-loaded with 4 μM Fluo-3/0.01% pluronic acid in assay buffer composed of Hank's Balanced Salt Solution (138 mM NaCl, 5 mM KCl, 1.3 mM CaCl2, 0.5 mM MgCl2, 0.4 mM MgSO4, 0.3 mM KH2PO4, 0.3 mM Na2HPO4, 5.6 mM glucose) plus 20 mM HEPES (pH 7.4), 0.1% BSA and 2.5 mM probenicid (100 μl/well) for 1 hour in 5% CO2 at 37° C. After excess dye was discarded, cells were washed in assay buffer and layered with a final volume equal to 100 μl/well. Basal fluorescence was monitored in a fluorometric imaging plate reader (FLIPR™, Molecular Devices) with an excitation wavelength of 488 nm and an emission range of 500 to 560 nm. Laser excitation energy was adjusted so that basal fluorescence readings were approximately 10,000 relative fluorescent units. Cells were stimulated with agonists diluted in assay buffer (50 μl), and relative fluorescent units were measured at defined intervals (exposure=0.4 sec) over a 3 min period at room temperature. Maximum change in fluorescence was calculated for each well. Concentration-response curves derived from the maximum change in fluorescence were analyzed by nonlinear regression (Hill equation).

h β2 adr = h β2 adr (Homo sapiens, UniProt P07550); details: h β2 adr + chimera in COS-7; agonist NE, max 100 μM
Procedure: as §1, §2, §3

h GLP-1 = h GLP-1 (Homo sapiens, UniProt P43220); details: h GLP-1 + chimera in COS-7; agonist GLP-1, max 10 μM
Procedure: as §1, §2, §3

h D5 = h D5 (Homo sapiens, UniProt P21918); details: h D5 + chimera in COS-7; agonist DA, max 100 μM
Procedure: as §1, §2, §3

h 5HT7 = h 5HT7 (Homo sapiens, UniProt P34969); details: h 5HT7 + chimera in COS-7; agonist 5HT, max 100 μM
Procedure: as §1, §2, §3

h 5HT4 = h 5HT4 (Homo sapiens, UniProt Q13639); details: h 5HT4 + chimera in COS-7; agonist 5HT, max 100 μM
Procedure: as §1, §2, §3

r GALR3 = biological target: T1, r GALR3; details: COS-7 cells transfected with the rat GALR3 receptor; n=4
Procedure: as §1, §2, §3

[1] = h D1 + chimera in COS-7, agonist DA, max 100 μM

Sequence of h 5HT6 (P50406 whole entry): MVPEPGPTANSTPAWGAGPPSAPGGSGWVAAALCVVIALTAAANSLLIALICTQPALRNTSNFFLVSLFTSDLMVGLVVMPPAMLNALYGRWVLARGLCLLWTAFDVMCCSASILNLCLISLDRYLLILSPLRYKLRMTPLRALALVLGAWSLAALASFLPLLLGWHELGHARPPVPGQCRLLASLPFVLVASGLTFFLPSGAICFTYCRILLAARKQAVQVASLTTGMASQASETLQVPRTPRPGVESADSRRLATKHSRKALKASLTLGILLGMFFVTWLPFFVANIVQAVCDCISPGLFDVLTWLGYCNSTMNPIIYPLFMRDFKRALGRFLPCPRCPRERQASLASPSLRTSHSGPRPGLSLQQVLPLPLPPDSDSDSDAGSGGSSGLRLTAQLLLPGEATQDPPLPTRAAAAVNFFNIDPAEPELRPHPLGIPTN
Sequence of h 5HT4 (Q13639 whole entry): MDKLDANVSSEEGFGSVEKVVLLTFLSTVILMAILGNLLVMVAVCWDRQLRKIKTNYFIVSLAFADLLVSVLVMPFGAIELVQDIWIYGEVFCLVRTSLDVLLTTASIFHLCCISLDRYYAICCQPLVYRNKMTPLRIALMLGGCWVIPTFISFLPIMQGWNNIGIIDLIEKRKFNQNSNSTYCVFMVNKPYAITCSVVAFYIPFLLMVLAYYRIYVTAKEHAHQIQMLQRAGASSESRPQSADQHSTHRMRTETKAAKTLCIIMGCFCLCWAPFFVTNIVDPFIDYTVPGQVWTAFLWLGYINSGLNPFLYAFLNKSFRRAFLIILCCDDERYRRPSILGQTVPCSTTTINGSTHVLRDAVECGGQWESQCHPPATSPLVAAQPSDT
Sequence of h 5HT7 (P34969 whole entry): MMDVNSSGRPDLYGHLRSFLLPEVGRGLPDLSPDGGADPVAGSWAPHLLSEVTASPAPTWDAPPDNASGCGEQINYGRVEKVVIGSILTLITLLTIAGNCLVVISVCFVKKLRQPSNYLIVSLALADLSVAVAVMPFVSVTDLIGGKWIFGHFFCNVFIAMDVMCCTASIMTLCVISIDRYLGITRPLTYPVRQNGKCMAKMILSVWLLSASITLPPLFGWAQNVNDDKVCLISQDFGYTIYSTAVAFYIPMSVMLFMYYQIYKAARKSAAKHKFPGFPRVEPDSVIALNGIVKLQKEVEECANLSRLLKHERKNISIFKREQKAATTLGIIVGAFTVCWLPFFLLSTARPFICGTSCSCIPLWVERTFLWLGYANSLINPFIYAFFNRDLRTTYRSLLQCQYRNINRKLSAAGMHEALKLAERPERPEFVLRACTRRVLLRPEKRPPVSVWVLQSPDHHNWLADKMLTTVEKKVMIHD
Sequence of h GLP-1 (P43220 24-463): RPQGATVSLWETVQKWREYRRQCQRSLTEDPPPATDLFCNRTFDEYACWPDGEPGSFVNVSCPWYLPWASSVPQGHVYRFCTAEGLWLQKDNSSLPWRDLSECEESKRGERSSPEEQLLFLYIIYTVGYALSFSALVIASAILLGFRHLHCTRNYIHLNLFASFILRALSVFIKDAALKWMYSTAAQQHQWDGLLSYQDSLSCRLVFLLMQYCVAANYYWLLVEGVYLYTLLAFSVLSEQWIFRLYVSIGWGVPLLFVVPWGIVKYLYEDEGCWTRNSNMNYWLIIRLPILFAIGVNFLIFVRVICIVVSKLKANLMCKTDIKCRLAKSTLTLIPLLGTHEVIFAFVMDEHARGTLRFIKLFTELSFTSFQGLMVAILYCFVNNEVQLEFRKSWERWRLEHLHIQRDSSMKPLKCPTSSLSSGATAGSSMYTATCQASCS
Sequence of h D5 (P21918 whole entry): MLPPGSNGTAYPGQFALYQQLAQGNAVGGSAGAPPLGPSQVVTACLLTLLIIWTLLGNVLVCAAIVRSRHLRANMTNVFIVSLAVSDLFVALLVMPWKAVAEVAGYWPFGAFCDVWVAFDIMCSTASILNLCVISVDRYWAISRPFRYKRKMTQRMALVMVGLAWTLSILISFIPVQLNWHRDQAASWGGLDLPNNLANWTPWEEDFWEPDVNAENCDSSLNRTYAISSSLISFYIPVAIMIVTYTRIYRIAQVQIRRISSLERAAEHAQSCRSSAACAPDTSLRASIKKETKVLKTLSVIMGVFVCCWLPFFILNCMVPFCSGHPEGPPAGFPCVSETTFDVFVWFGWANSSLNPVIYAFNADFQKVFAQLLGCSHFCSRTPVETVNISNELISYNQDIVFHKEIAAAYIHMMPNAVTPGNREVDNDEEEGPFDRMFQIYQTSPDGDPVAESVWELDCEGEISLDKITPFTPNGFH
T2 sequence (P21728 whole entry): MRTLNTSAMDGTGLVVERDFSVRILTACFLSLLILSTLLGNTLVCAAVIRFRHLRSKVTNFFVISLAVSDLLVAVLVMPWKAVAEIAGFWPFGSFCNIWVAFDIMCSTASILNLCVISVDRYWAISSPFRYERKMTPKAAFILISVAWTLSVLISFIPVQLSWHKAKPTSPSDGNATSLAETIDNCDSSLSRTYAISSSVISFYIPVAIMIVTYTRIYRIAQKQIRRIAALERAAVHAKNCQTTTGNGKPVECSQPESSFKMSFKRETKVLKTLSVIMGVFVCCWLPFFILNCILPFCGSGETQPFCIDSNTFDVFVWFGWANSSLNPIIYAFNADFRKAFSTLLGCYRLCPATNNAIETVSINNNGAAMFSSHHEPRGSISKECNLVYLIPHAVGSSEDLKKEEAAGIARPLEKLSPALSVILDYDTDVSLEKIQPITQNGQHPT

Molecule	MAXIMAL SIGNAL (FLUORESCENCE UNITS) (h D1; human D1 receptors in COS-7, 10 μg chimera cDNA and 10 μg receptor cDNA, 100 μM dopamine, Table 9 parallel comparison, mean of two experiments) [fluorescence units]	MAXIMAL SIGNAL (FLUORESCENCE UNITS) (h D1; [1]) [fluorescence units]	MAXIMAL SIGNAL (FLUORESCENCE UNITS) (h 5HT6) [fluorescence units]	MAXIMAL SIGNAL (FLUORESCENCE UNITS) (h β2 adr) [fluorescence units]	MAXIMAL SIGNAL (FLUORESCENCE UNITS) (h GLP-1) [fluorescence units]	MAXIMAL SIGNAL (FLUORESCENCE UNITS) (h D5) [fluorescence units]	MAXIMAL SIGNAL (FLUORESCENCE UNITS) (h 5HT7) [fluorescence units]	MAXIMAL SIGNAL (FLUORESCENCE UNITS) (h 5HT4) [fluorescence units]	maximum signal produced by porcine galanin (r GALR3)
B1	2149	–	–	–	–	–	–	–	–
B2	–	9433	1009	3513	3120	3385	206	1731	–
B3	–	5692	999	1439	4198	745	0	2309	–
B4	–	–	–	–	–	–	–	–	2084 relative fluorescent units
B5	–	–	98	43	189	0	0	1709	–
B6	–	–	–	–	–	–	–	–	2564 relative fluorescent units
